In patent publication US20190000964A1 one finds Kd, percent inhibition of FITC-gp120Bal binding and EC50 data, which are given here for three substances.

Some results are limits rather than exact numbers.

Assay [1] has as its target human CCR5 receptor (hCCR5) (human) (UniProt P51681).
For assay [2] the target is unchanged. Briefly: 0.5 nM non-labeled gp120 Bal against 0.5 nM FITC-gp120Bal on Cf2Th/synCCR5 cells with sCD4.
For assay [3] the target is unchanged. As to the kind of experiment: inhibition of gp120/sCD4 complex binding to CCR5-expressing Cf2Th cells by competing peptide.

human CCR5 receptor (hCCR5) (human), sequence (P51681 whole entry): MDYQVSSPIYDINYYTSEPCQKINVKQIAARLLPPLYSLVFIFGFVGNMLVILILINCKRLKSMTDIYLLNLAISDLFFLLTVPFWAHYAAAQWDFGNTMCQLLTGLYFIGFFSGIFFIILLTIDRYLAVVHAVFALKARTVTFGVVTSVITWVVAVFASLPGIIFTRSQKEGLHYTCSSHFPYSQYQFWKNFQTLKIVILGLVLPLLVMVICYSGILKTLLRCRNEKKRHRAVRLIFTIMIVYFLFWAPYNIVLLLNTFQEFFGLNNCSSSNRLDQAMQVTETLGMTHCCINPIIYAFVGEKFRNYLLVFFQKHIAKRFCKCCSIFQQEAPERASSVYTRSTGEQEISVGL

As for “gp120 Bal-sCD4 complex (from UniProt P01730 26-396)”, the Kd in assay [1] came out at 0.46 nM. The same substance came in with a percent inhibition of FITC-gp120Bal binding in assay [2] above 80%.

Turning to All D, ttnyt (peptide), in assay [3], the EC50 is 2 nM.

For the substance “gp120 CM235-sCD4 complex (from UniProt P01730 26-396)”, the Kd in assay [1] came out at 0.77 nM.

By Kd is commonly meant the equilibrium constant for the complex coming apart. Read a high Kd as a looser complex. Broadly, the EC50 is the concentration at which the effect is half-maximal. A low value points to a more potent agent.
